According to patent US20260102505A1, “ANTI-CD45-IGN ANTIBODY DRUG CONJUGATES AND USES THEREOF” (Vor Biopharma Inc., priority 2022, published 2026):
Where a chain is given by its changes, count along the chain named.

B1: Ab2: human anti-CD45 antibody, VH SEQ ID NO:11, VL SEQ ID NO:15 (antibody, V domains shown)
VH: EVQLVESGGGLVQPGGSLRLSCAASGFTFEAYSMNWVRQAPGKGLEWVSYISLSGATIHYADSVKGRFTISRDNAKNSLYLQMNSLRAEDTAVYYCARGGQYYYDSSDYGEVAFDIWGQGTMVTVSS
VL: DIVMTQSPLSLPVTPGEPASISCRSSQSLVSNGYNYLDWYLQKPGQSPQLLIYFGSSRASGVPDRFSGSGSGTDFTLKISRVEAEDVGVYYCMQRRRTPWSFGGGTKVEIK
B2: Ab6: human anti-CD45 antibody, VH SEQ ID NO:51, VL SEQ ID NO:55 (antibody, V domains shown)
VH: B1 VH with D105T, M122L
VL: B1 VL with M4L, N32S
B3: Ab3: human anti-CD45 antibody, VH SEQ ID NO:21, VL SEQ ID NO:25 (antibody, V domains shown)
VH: B1 VH with E1Q, Q13K, E30G, A31G, L53I, H59T
VL: DIVMTQSPLSLPVTPGEPASISCRSSQSLVSNGYNYLDWYLQKPGQSPQLLIYFGSSRASGVPDRFSGSGSGTDFTLKISRVEAEDVGVYYCMQRRRTPPFTFGGGTKVEIK
B4: Ab4: human anti-CD45 antibody, VH SEQ ID NO:31, VL SEQ ID NO:35 (antibody, V domains shown)
VH: B1 VH with D105T
VL: B1 VL
B5: Ab7: human anti-CD45 antibody, VH SEQ ID NO:61, VL SEQ ID NO:65 (antibody, V domains shown)
VH: B1 VH with E1Q, Q13K, E30G, A31G, L53I, H59T
VL: B3 VL with N32S
B6: AbA: humanized and affinity matured anti-CD45 antibody, VH SEQ ID NO:71, VL SEQ ID NO:75 (antibody, V domains shown)
VH: EVQLLESGGGLVQPGGSLRLSCAASGFTFNNYWMTWVRQAPGKGLEWVSSISSSGGSIYYPDRVKGRFTISRDNSKNTLYLQMNSLRAEDTAVYYCARDERWAGAMDAWGQGTTVTVSS
VL: DIQMTQSPSSLSASVGDRVTITCKASQNINKNLDWYQQKPGKAPKLLIYETNNLQTGVPSRFSGSGSGTDFTLTISSLQPEDFATYYCYQHNSRFTFGQGTKLEIK
B7: AbB: humanized and affinity matured anti-CD45 antibody, VH SEQ ID NO:81, VL SEQ ID NO:85 (antibody, V domains shown)
VH: EVQLVESGGGLVQPGGSLRLSCAASGFTFTNFWMAWIRQAPGKGLEWVASISSSGGSIYYPDSVKDRFTISRDNSKNTLYLQMNSLRAEDTAVYYCVKFHHYSGGGDAWGQGTLVTVSS
VL: DIQMTQSPSSLSASVGDRVTITCKASQNINKYLDWYQQKPGKAPKLLIHYTNNLHTGIPSRFSGSGSGTDYTLTISSLQPEDFATYYCLQHSSRWTFGGGTKVEIK
B8: AbC: humanized and affinity matured anti-CD45 antibody, VH SEQ ID NO:91, VL SEQ ID NO:95 (antibody, V domains shown)
VH: EVQLVESGGGLVQPGGSLRLSCAASGFTFNNYWMTWVRQAPGKGLEWVSSISSSGGSIYYPDSVKDRFTISRDNAKNSLYLQMNSLRAEDMAVYYCARLYYYDGGGDAWGQGTLVTVSS
VL: B7 VL with D1G, N28D, H49Y, Y50N, S92I

test system: human CD45, cyno CD45 and rhesus CD45; experiment: CD45 binding / species cross-reactivity of antibodies; design: species or system cynomolgus

Molecule	cross-reactivity with CD45 of species (in words)
B1	cross reacts with human CD45, cyno CD45 and rhesus CD45
B2	cross reacts with human CD45, cyno CD45 and rhesus CD45
B3	cross reacts with human CD45, cyno CD45 and rhesus CD45
B4	cross reacts with human CD45, cyno CD45 and rhesus CD45
B5	cross reacts with human CD45, cyno CD45 and rhesus CD45
B6	cross reacts with human CD45, cyno CD45 and rhesus CD45
B7	cross reacts with human CD45, cyno CD45 and rhesus CD45
B8	cross reacts with human CD45, cyno CD45 and rhesus CD45
